Experimental findings from patent publication US20150266957A1 (Regeneron, published 2015) are described below.

In one experiment the target is T1, human PROKR2(1-53)-hFc (human).
T1 construct: also called soluble human PROKR2 (N-terminal portion)
Nature of the experiment: SPR (Biacore 4000), 25 C, antibody captured. The procedure: (§1) Kinetic experiments were carried out using HBS-EP (10 mM HEPES, 150 mM NaCl, 3 mM EDTA, 0.05% Surfactant P20, pH 7.4) as both the running buffer and the sample buffer. Antigen-antibody association rates were measured by injecting 2 concentrations (25 and 100 nM) of both human PROKR1 (1-62)-hFc (SEQ ID NO:179) and human PROKR2(1-53)-hFc (SEQ ID NO:180) over the captured antibody surface. Antibody-antigen association was monitored for 90 seconds while dissociation was monitored for 360 seconds. Kinetic on-rate (kₐ) and off-rate (kd) constants were determined from the data using Scrubber software version 2.0 c. Binding dissociation equilibrium constants (KD) and dissociative half-lives (t 1/2) were calculated from the kinetic rate constants as: KD=kd/kₐ and t 1/2=ln(2)/kd.
A general note: SPR reads the build-up and loss of mass on a sensor chip optically.

In the next experiment the target is human PROKR1 (human, UniProt Q8TCW9 1-393). Briefly: cell-based or functional assay.
Chain of human PROKR1 (Q8TCW9 whole entry): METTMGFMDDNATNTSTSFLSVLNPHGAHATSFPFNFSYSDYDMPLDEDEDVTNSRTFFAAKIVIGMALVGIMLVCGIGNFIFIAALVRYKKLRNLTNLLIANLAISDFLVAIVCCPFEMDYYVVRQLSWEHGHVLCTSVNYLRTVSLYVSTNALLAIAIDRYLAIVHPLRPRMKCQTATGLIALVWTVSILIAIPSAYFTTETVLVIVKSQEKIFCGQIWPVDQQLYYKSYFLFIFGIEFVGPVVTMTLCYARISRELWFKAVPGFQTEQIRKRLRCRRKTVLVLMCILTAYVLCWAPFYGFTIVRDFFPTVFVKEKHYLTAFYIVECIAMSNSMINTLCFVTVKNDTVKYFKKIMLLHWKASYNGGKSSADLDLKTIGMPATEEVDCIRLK
Experiment [1] has as its target T2, mouse PROKR1 (mouse (Mus musculus), UniProt Q9JKL1 1-393). Nature of the experiment: cell-based or functional assay.
A further experiment concerns the target T3, human PROKR1 (1-62)-hFc (human).
T3 construct: also called soluble human PROKR1 (N-terminal portion)
Briefly: SPR (Biacore 4000), 25 C, antibody captured, antigen injected at 25 and 100 nM. The procedure:
as §1

Experiment [2] addresses T4, human PROKR2 (human, UniProt Q8NFJ6 1-384).
T4 construct: Expressed on engineered HEK293 or CHO cells; also called hPROKR2; prokineticin receptor 2
Briefly: flow cytometry, HEK293 cells expressing the target. The procedure: (§2) Anti-PROKR antibodies generated in accordance with Example 1 were tested for the ability to bind to human, mouse, and monkey PROKR1 and PROKR2. For these experiments, HEK293 cells were engineered to express: human PROKR1; human PROKR2; mouse PROKR1; mouse PROKR2; cynomolgus monkey PROKR1; or cynomolgus monkey PROKR2. Binding of anti-human PROKR antibodies to the PROKR-expressing cell lines was measured by flow cytometry.
(§3) Adherent cells were collected using 1 mM EDTA in PBS, then washed, and re-suspended in cold PBS containing 5% FBS. For the binding experiments, each anti-PROKR antibody was added to 250,000 cells in 500 μl of PBS with 5% FBS (final antibody concentration of 13 nM). After incubation for 20 minutes at room temperature, the cells were washed with PBS containing 5% FBS. A secondary antibody, recognizing either human (Jackson Immuno Research, #115-135-205) or mouse Fc (BD Pharmigen, #550826) and conjugated to allophycyanin, was then added to the cell mixture at a final concentration of 13.3 nM. After incubating for 20 minutes on ice, the cells were washed and resuspended in PBS containing 5% FBS and then sorted and analyzed on a FACSCalibur (BD Biosciences) flow cytometer to determine relative binding by the candidate antibodies. The cell samples containing secondary antibody alone were used as negative control for FACS gating. Histograms of cells stained with anti-human PROKR antibodies were compared with cells stained with secondary alone. […] ND=not determined.
A general note: In flow cytometry, cells or beads pass a laser one at a time.

In experiment [3] the target is T5, mouse PROKR2 (mouse (Mus musculus), UniProt Q8K458 1-381).
T5 construct: whole, on cells; Expressed on engineered HEK293 or CHO cells; also called mPROKR2; CHO/mPROKR2
T5 sequence (Q8K458 whole entry): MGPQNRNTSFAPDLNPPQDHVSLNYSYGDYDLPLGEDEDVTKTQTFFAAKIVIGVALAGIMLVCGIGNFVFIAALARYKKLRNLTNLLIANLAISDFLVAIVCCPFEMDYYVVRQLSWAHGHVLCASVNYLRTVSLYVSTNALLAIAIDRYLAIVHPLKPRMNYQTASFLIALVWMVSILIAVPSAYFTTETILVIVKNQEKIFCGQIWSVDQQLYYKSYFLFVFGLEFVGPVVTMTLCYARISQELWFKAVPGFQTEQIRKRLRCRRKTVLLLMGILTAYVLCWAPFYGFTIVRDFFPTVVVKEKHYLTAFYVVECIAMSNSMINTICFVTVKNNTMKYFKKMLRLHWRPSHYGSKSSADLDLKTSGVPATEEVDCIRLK
Briefly: flow cytometry, HEK293 cells expressing the target, 13 nM antibody. The procedure: as §2, §3

Experiment [4] has as its target T4, human PROKR2. The experiment is described as above. The protocol: as §2, §3
The target in the next experiment is T6, cynomolgus monkey PROKR1 (cynomolgus monkey (Macaca fascicularis), UniProt G7PMD0 1-393).
T6 construct: whole, on cells; Expressed on engineered HEK293 cells; also called MfPROKR1; 293/mfPROKR1
T6 sequence (G7PMD0 entry or part of it): as the sequence (Q8TCW9 whole entry) above, with V22A, T31A, S40G, I82V, V135I, K210R, V246F, D348N, V350A counted along it
Briefly: flow cytometry, HEK293 cells expressing the target. The protocol:
as §2, §3

Experiment [5] has as its target T2, mouse PROKR1. Briefly: flow cytometry, HEK293 cells expressing the target. The procedure: as §2, §3
The next experiment has as its target T7, cynomolgus monkey PROKR2 (cynomolgus monkey (Macaca fascicularis), UniProt A0A7N9CAJ3 1-384).
T7 construct: whole, on cells; Expressed on engineered HEK293 cells; also called MfPROKR2; 293/mfPROKR2
Briefly: flow cytometry, HEK293 cells expressing the target. The protocol:
as §2, §3

In experiment [6] the target is T5, mouse PROKR2. Briefly: flow cytometry, HEK293 cells expressing the target. The procedure:
as §2, §3

T4 sequence (Q8NFJ6 whole entry): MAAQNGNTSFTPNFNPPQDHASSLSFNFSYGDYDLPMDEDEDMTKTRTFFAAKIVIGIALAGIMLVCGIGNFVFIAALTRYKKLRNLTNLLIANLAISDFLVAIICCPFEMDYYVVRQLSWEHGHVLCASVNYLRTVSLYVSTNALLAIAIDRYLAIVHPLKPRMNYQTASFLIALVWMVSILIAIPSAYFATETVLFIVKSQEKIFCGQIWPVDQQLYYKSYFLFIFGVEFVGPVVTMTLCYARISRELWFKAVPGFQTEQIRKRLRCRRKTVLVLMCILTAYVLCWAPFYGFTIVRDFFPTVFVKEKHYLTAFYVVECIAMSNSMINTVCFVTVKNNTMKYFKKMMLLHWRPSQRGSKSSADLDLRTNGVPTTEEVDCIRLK
T2 sequence (Q9JKL1 whole entry): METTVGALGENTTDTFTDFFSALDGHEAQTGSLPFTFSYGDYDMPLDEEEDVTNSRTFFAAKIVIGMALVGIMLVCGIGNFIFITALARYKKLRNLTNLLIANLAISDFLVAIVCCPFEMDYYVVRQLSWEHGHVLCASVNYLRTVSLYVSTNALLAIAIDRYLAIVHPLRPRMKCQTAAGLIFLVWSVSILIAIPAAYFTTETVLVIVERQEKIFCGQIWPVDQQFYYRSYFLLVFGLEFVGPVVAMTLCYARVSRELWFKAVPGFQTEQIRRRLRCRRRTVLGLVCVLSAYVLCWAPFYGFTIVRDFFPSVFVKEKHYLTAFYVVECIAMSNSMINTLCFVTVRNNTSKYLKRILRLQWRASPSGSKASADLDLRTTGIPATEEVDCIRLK
T3 sequence (chain, as listed by the source limits assumed): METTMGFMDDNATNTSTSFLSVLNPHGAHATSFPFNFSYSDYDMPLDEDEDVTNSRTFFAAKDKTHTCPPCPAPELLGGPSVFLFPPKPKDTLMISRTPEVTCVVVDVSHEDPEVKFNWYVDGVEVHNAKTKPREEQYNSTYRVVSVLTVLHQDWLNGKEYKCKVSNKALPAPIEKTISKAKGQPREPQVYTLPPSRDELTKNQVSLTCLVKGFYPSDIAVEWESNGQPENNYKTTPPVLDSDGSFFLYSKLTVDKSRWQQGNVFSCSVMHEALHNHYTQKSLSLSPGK
T7 sequence (A0A7N9CAJ3 entry or part of it): as the sequence (Q8NFJ6 whole entry) above, with T11A, R357W, D364E, T374A counted along it

B1: H4H6671P (antibody, human IgG4, V domains shown)
VH: EVQLVESGGGLVKPGGSLRLSCAASGFTFSNAWMSWVRQAPGKGLEWVGRIKSRSDGGTTDYAAPVKGRFTISRDDSKNTLYLQMNSLKTEDTALYYCSPPGSHYGYWGQGTLVTVSS
VL: not shown
Broadly, the Kd is the concentration at which binding is half-saturated. What is called koff is the first-order rate constant of dissociation. By kon is commonly meant the second-order rate constant of association. As usually defined, the t½ is the time in which the quantity being followed falls by half. As for B1, the binding result with human PROKR2(1-53)-hFc was “no binding (tested: 25 and 100 nM antigen injected)”. In addition, in the experiment with human PROKR1, the “Block (%), calcium flux, hPROKR1 + PK1 (20 nM hPK1)” value is 45% and the “IC50 (nM), inhibition of calcium flux, hPROKR1 + PK1 (20 nM hPK1)” value was determined as 14.5 nM. In addition, in the experiment with mouse PROKR1 [1], the “Block (%), calcium flux, mPROKR1 + PK1 (1 nM hPK1)” value was 0%. For the same molecule, in the experiment with human PROKR1 (1-62)-hFc, binding was put at a Kd of 1.83 nM, the koff turned out to be 0.000362 s⁻¹, the association rate constant (kon) came to 198000 M⁻¹ s⁻¹ and the t½ stood at 32 min. Further, in the experiment with human PROKR2 [2], the binding result was “no binding”.

B2: H2M6385N (antibody, V domains shown)
VH: EVQVVESGGGLVKPGGSLRLSCAASGFTFSNVWMTWVRQAPGKGLEWVGRIKSKIEGGTTDYAASVKGRFTISRDDSKNTQSLQMNSLKSEDTAVYYCSTGHLAYWGQGTLVIVSS
VL: DIVMTQTPLSSPVSLGQPASISCRSSQSLVHSDGSTYLSWLQQRPGQPPRLLIYKISNRFSGVPDRFSGSGAGTDFTLKISRVEAEDVGIYYCMQATQFPTFGQGTKVEIK
notes: the prefix H2M is not spelled out
Regarding B2, the binding result in the experiment with mouse PROKR2 [3] is on record as “binds”; with human PROKR2 [4], “binds”; with cynomolgus monkey PROKR1, “no binding”; with mouse PROKR1 [5] it was “no binding”.

B3: H1M6386N (antibody, mouse IgG1, V domains shown)
VH: NVQLVESGGGLVKPGGSLRLSCVASGFTFANAWMTWVRQAPGKGLEWVGRIKSKTDGGTTDHAAPVKGRFIVSRDDSKSTLYLQMNSLKTEDTAVYYCTNYAFQLWGQGTLVTVSS
VL: DIVMTQTPLSSLVTLGQSASISCRSSQGLVHSDGNTYLSWLHQRPGQPPRLLIYKISNRFSGVPDRFTGSGAGTDFTLKISRVEAEDVGVYYCMQSTQFPRTFGQGTKVEIK
notes: Chimeric: human variable domains, mouse constant domains
B3: the binding result with human PROKR2 [4] is recorded as “binds”. Besides, the binding result with human PROKR2(1-53)-hFc was “no binding (tested: 25 and 100 nM antigen injected)”. Also, in the experiment with human PROKR1, the “Block (%), calcium flux, hPROKR1 + PK1 (20 nM hPK1)” value stood at 92%; the “IC50 (nM), inhibition of calcium flux, hPROKR1 + PK1 (20 nM hPK1)” value stood at 14.9 nM; the “IC50 (nM), inhibition of calcium flux, hPROKR1 + PK2 (20 nM hPK2)” value amounted to 16.2 nM. Also, in the experiment with human PROKR1 (1-62)-hFc, the equilibrium dissociation constant (Kd) was 4.85 nM, the koff worked out at 0.00103 s⁻¹, the kon was found to be 212000 M⁻¹ s⁻¹ and the t½ stood at 11 min. Further, the binding result with cynomolgus monkey PROKR2 is on record as “no binding”. In addition, in the experiment with mouse PROKR2 [6], the binding result is given as “no binding”. The binding result with cynomolgus monkey PROKR1 is “no binding”. In addition, the binding result with mouse PROKR1 [5] is listed as “no binding”.
